From PMC11649694, “ZBTB48 is a priming factor regulating B-cell-specific CIITA expression”

Target: T1, ZBTB48 ZnF10-11-C (Homo sapiens, UniProt P10074 548-620)
T1 sequence: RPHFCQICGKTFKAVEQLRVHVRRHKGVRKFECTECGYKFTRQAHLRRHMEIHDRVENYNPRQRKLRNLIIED
Test: X-ray crystallography; ZnF11 contacts G10G11G12; R614 contacts G12 and C8T9 of other strand; Pull-down: 150 mM NaCl, 50 mM Tris-HCl pH 7.5, 5 mM MgCl2, 0.5% Igepal CA-630, 1 mM DTT, 20 ug salmon sperm DNA, 4 C 2 h; crystals: 0.2 M imidazole malate pH 8.5, 20% PEG 4K, 20 C
Settings: protein: recombinant; tags: GST removed by TEV; 5' overhang 1 nt at both ends, 15 bp

B1: CIITA e.2 crystal duplex (dsDNA)
DNA 1: CACAAGTGAGGGATCA
DNA 2: GTGATCCCTCACTTGT
  binding result: binds
